Data as given in article PMC12724168, “Real-time simultaneous monitoring of multiple analytes in bacterial cultures” (Applied and Environmental Microbiology, 2025).

B1: LAOBP-22C Acrylodan (conjugate, UniProt P02911 23-260, looked up, variant A22C)
Lysine/arginine/ornithine-bind …: ALPQTVRIGTDTTYAPFSSKDCKGEFIGFDIDLGNEMCKRMQVKCTWVASDFDALIPSLKAKKIDAIISSLSITDKRQQEIAFSDKLYAADSRLIAAKGSPIQPTLESLKGKHVGVLQGSTQEAYANDNWRTKGVDVVAYANQDLIYSDLTAGRLDAALQDEVAASEGFLKQPAGKEYAFAGPSVKDKKYFGDGTGVGLRKDDTELKAAFDKALTELRQDGTYDKMAKKYFDFNVYGD
modifications: Acrylodan label
B2: LAOBP-22C Alexa488 (conjugate, UniProt P02911 23-260, looked up, variant A22C)
Lysine/arginine/ornithine-bind …: B1 Lysine/arginine/ornithine-bind …
modifications: Alexa488 label
B3: LAOBP-22C IANBD (conjugate, UniProt P02911 23-260, looked up, variant A22C)
Lysine/arginine/ornithine-bind …: B1 Lysine/arginine/ornithine-bind …
modifications: IANBD label
B4: LAOBP-22C Texas Red (conjugate, UniProt P02911 23-260, looked up, variant A22C)
Lysine/arginine/ornithine-bind …: B1 Lysine/arginine/ornithine-bind …
modifications: Texas Red label
B5: LAOBP-22C TMR (conjugate, UniProt P02911 23-260, looked up, variant A22C)
Lysine/arginine/ornithine-bind …: B1 Lysine/arginine/ornithine-bind …
modifications: TMR label

Tests used:
[1] = tested on: cultures of P. aeruginosa, S. aureus, E.coli, E. faecalis, and C. striatum; experiment: Gel electrophoresis of biosensors after 24 h in bacterial cultures (stability); settings: 24 hours in culture, LB, supernatants
Experimental: To determine if the observed changes in fluorescence were not simply the result of degradation of the protein sensors over the course of E. coli growth, glucose, individual ligands (arabinose, ribose, glutamate, arginine, or ornithine) were added to 24-hour-old cultures containing each corresponding PBP. Immediately after the addition of the respective analyte, fluorescence was measured again (Fig. 3F).
Figure S3: Gel electrophoresis analysis of the stability of the biosensors after incubation with different bacterial species in culture for 24 hours. Left gel: TnGBP, Right gel: LAOBP. A Bio-Rad gel imager was used to detect the fluorescently labeled biosensor in each sample. In each gel, the lanes are as follows: 1. MW standard, 2. Pure protein, 3. Pure protein in LB with no bacteria, 4 – 8: supernatants after 24 hours of cultures of P. aeruginosa, S. aureus-GBP, E.coli, E. faecalis, and C. striatum.

[2] = Fluorescence titration of LAOBP-22C conjugates with arginine; type: binding; settings: LAOBP-22C conjugate, ligand arginine
Excerpt: (§1) Because of this, we decided to design and develop a biosensor for arginine, using the lysine/arginine/ornithine binding protein from Salmonella (LAOBP) ([52]). We carried out cysteine scanning by introducing four individual cysteine mutations at positions near the hinge region. The selection of cysteine positions was guided by the crystal structures of the apo and bound forms of the protein ([53]) (Fig. S1). Each of the four mutants was conjugated to six different fluorophores, and the fluorescence change upon the addition of ligand was characterized for each of the 24 protein-ligand conjugates. […] We determined the dissociation constants for all three ligands (arginine, lysine, and ornithine) using the LAOBP-22C acrylodan conjugate (Fig. 1F) and the coumarin conjugate (Fig. S2). With a large change in fluorescence and a dissociation constant of 1.5 µM for both arginine and lysine, we chose to use the LAOBP-22C acrylodan conjugate for subsequent experiments.
(§2) Fluorescence analysis of protein-fluorophore conjugates was carried out on a Jasco FP-8500 fluorometer. […] Fluorescence values were volume adjusted, and Kd values were determined by fitting the titration data using Kaleidagraph according to the following equation: […]
(§3) where F is the observed fluorescence at a given ligand concentration [L], Fo is the fluorescence in the absence of ligand, and Fmax is the fluorescence at saturation.

[3] = Fluorescence change of LAOBP-22C fluorophore conjugates upon addition of ligand; type: binding; settings: LAOBP-22C mutant conjugates, ligand not given
Excerpt: as §1
Fluorescence analysis of protein-fluorophore conjugates was carried out on a Jasco FP-8500 fluorometer. UV-clear, four-sided cuvettes containing 200–300 nM labeled protein in working buffer were used. The following parameters were used for each of the fluorophores: Acrylodan (excitation: 359 nm, emission: 440–550 nm), Coumarin (excitation: 390 nm, emission: 430–520 nm), IANBD (excitation: 460 nm, emission: 500–600 nm), Alexa488 (excitation: 490 nm, emission: 500–560 nm), TMR (excitation: 555 nm, emission: 570–620 nm), and Texas Red (excitation: 595 nm, emission: 600–660 nm). Titrations were carried out by adding increasing amounts of ligand while monitoring changes in emission at the maximum wavelength. Fluorescence values were volume adjusted, and Kd values were determined by fitting the titration data using Kaleidagraph according to the following equation: […]

[4] = Fluorescence titration of LAOBP-22C conjugates with lysine; type: binding; settings: LAOBP-22C conjugate, ligand lysine
Excerpt: as §1, §2, §3

[5] = Fluorescence titration of LAOBP-22C conjugates with ornithine; type: binding; settings: LAOBP-22C conjugate, ligand ornithine
Excerpt: as §1, §2, §3

Molecule | stability of the biosensor in bacterial culture (gel electrophoresis) [1] | Kd [2] [µM] | % Change [3] | Kd [4] [µM] | Kd [5] [µM]
B1 | two bands are visible | 1.5 ± 0.1 | −50% | 1.5 ± 0.1 | 38.9 ± 1.8
B2 |  |  | +8% |  | 
B3 |  |  | -8% |  | 
B4 |  |  | −22% |  | 
B5 |  |  | −10% |  | 
